# T1: human SPNS2 (human, UniProt Q8IVW8 1-549)
# T1 construct: S1P transporter; in Cell ELISA and S1P assays on Flp-in 293 cells that also express human SphK1; also called Spinster homolog 2; native type
# T1 sequence: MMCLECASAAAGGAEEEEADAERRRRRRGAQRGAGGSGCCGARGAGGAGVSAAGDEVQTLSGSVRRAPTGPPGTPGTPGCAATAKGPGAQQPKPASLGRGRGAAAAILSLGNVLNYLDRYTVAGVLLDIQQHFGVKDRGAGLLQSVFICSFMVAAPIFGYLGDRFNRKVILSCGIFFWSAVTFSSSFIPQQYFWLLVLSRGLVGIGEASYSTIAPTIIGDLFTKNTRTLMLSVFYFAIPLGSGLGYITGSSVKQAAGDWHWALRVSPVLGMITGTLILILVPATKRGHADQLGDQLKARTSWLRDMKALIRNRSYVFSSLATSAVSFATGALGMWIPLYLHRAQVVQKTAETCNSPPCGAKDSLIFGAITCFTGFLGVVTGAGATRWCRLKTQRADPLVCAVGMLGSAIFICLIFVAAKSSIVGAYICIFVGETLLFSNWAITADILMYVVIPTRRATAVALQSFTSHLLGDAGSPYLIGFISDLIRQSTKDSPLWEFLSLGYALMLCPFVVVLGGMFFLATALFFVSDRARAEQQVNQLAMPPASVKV
# T2: mouse SPNS2 (mouse, UniProt Q91VM4 1-549)
# T2 construct: on Flp-in 293 cells that also express human SphK1
# T2 sequence: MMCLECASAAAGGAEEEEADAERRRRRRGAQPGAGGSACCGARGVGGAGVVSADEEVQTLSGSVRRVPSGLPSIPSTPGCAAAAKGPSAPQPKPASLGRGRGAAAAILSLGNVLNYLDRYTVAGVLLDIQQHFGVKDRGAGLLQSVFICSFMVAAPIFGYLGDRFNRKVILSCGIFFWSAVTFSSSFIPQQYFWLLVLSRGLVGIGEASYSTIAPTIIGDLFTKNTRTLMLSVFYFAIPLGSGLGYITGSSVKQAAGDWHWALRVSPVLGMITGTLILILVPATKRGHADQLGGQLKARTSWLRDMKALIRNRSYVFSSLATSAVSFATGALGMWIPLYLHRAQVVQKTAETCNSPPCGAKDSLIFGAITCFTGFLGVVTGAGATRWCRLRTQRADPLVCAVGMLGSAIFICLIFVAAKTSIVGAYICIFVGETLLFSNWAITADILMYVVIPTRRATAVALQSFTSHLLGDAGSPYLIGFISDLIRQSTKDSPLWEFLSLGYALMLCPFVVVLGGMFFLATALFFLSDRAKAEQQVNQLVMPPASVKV
# T3: human SPNS2 W259A mutant (human, UniProt Q8IVW8 1-549)
# T3 sequence: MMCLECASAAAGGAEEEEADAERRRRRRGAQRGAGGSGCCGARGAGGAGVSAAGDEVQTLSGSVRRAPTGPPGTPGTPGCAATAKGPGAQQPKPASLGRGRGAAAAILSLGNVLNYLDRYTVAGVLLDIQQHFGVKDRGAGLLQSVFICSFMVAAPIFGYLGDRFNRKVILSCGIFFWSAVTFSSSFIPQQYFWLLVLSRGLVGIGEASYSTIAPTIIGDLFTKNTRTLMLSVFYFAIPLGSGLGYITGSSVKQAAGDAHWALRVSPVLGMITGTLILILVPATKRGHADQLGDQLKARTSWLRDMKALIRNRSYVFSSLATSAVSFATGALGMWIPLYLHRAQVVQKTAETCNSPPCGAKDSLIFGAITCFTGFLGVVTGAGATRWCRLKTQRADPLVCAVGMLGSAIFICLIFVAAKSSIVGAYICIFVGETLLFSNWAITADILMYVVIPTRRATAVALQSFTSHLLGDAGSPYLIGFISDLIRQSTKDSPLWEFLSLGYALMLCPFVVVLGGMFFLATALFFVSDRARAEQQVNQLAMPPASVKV
# Experiments:
# [1] = molecular target: T1, human SPNS2; assay: Cell ELISA
# Description: (§1) Human and mouse SPNS2 and human SphK1 double stable expression Flp-in 293 cells were added to a poly D lysine coat 96-well plate (Corning, 356461) in a density of 1×10⁵ cells/well and was cultivated overnight, and then the culture medium was removed. An anti-SPNS2 antibody solution was adjusted into 20 μg/mL using 0.2% FBS/3% BSA/PBS, and 0.2% FBS/3% BSA/PBS (60 μL) was added to the antibody diluted solution (20 μL) to prepare seven-step diluted solutions by four fold serial dilution. Each diluted solution of the anti-SPNS2 antibody was added in a volume of 30 μL/well, and reacted for about one hour at room temperature. The antibody solution was removed, and the residue was washed with PBS containing 0.05% Tween 20 (PBS-T) two times, and fixed for about ten minutes at room temperature using 10% buffered formalin (Mildform (Trade mark) 10NM, Wako). After washing with PBS-T one time, a 5000-fold diluted solution of anti-rat IgG antibody HRP conjugate (Southern Biotech, 3030-05) in 0.2% FBS/3% BSA/PBS was added to each well (30 μL), and reacted for about one hour at room temperature. After washing with PBS-T four times, a substrate (TMB; 3, 3′, 5, 5′-tetramethylbenzidin) was added to each well (100 μL) to initiate the reaction. After 20 minutes, 2N sulfuric acid was added to each well (100 μL), and absorbance at 450 nm and 550 nm was measured. […] Each antibody bound to human SPNS2 and mouse SPNS2.
# [2] = molecular target: T2, mouse SPNS2; assay: Cell ELISA
# Description: as §1
# [3] = molecular target: T3, human SPNS2 W259A mutant; assay: flow cytometry
# [4] = molecular target: T1, human SPNS2; assay: cell-based or functional assay
# [5] = molecular target: T2, mouse SPNS2; assay: cell-based or functional assay
# [6] = molecular target: T1, human SPNS2; assay: cell-based or functional assay; remark: listed apart in the source
# [7] = molecular target: T2, mouse SPNS2; assay: cell-based or functional assay; remark: listed apart in the source
Binder,Emax [1] [absorbance],pEC50 [1],Emax [2] [absorbance],pEC50 [2],binding ratio vs native type [3] [ratio],"pIC50, S1P transport inhibition (S1PR3 Ca2+ FLIPR bioassay) [4]","pIC50, S1P transport inhibition (S1PR3 Ca2+ FLIPR bioassay) [5]","pIC50, S1P transport inhibition (LC-MS/MS of S1P) [6]","pIC50, S1P transport inhibition (LC-MS/MS of S1P) [7]"
"50-0704C (antibody, IgG2b, V domains shown) VH: EVQLVGSGGGLVQPGRSMKLSCEASGFTFSNHYMAWVRQAPTKGLEWVATISTGGGNTYYRDSVKGRFTISRDNARSTLSLQMDSLRSEDTATYYCARQDYSNYMGGFAYWGQGTLVTVSS VL: QFVLTQPNSVSTNLGSTVKLSCTRSIGNIGNNYVNWYKQYEGRSPTTMIYRDDERPDGVPDRFSGSIDRSSNSALLTINSVQTEDEADYFCQSFSSGIFIFGGGTKLTVL",1.82,8.15 pEC50 (M),1.9,7.75 pEC50 (M),< 0.5,7.2 pIC50 (M),7.6 pIC50 (M),7.6 pIC50 (M),7.8 pIC50 (M)
"18-0211B (antibody, IgG2b, V domains shown) VH: AVQLVGSGGGLVQPGRSMKLSCEASGFTFSNHYMAWVRQAPTRGLEWVATISTGGGNTYYRDSVKGRFTISRDNTRSTLSLQMDSLRSEDTATYYCTRQDYTNYMGGFAYWGQGTLVTVSS VL: QFVLTQPNSVSTNLGSTVKLSCTRSIGNIGNNYVNWYKQYEGRSPTTLIYRDDERPDGVPDRFSGSIDRSSNSALLTINSVQTEDGADYFCQSFSSGIFIFGGGTTLTVL",1.72,8.59 pEC50 (M),1.61,8.37 pEC50 (M),–,7.6 pIC50 (M),7.9 pIC50 (M),7.9 pIC50 (M),8.1 pIC50 (M)
"89-1207D (antibody, IgG2b, V domains shown) VH: EVQLVGSGGGLVQPGRSMKLSCEASGFTFSNHYMAWVRQAPTKGLEWVATISTGGGNTYYRDSVKGRFTISRDNARSILSLQMDSLRSEDTATYYCARQDYSNYMGGFAYWGQGTLVTVSS VL: QFVLTQPNSVSTNLGSTVKLSCTRSIGNIGNNYVNWYKQYEGRSPTTMIYRDDERPDGVPDRFSGSIDRSSNSALLTINNVQTEDEADYFCQSFSSGMFIFGGGTKLTVL",2.03,7.97 pEC50 (M),1.85,7.72 pEC50 (M),–,7.2 pIC50 (M),7.6 pIC50 (M),7.6 pIC50 (M),7.8 pIC50 (M)
"84-1111F (antibody, IgG2b, V domains shown) VH: EVQVVESGGGLVQPGRSMKLSCAALGFTFRDYYMAWVRQTPTKGLEWVAAISTGGGNTYYRDSVKGRFTISRDNAKSTLYLKMDSLRSDDTATYYCARNPYGNYFDYWGQGVMVTVSS VL: QFVLSQPNSVSTNLGSTVKLSCKRSTGNIGSNYVHWYQRHEGRSPTTMIYRDDKRPNGVPDRFSGSIDRSSNSALLTINNVQTEDEADYFCQSYSGGMYLFGGGTTLTVL",1.68,8.75 pEC50 (M),1.55,8.65 pEC50 (M),–,7.7 pIC50 (M),8.3 pIC50 (M),8.1 pIC50 (M),8.3 pIC50 (M)
"80-1104A (antibody, IgG2b, V domains shown) VH: EVQLVETGGGLVQPGSSLKLSCSTSGFTFSETWMSWVRQAPGKGLEWVGLIKDKNSNYEANYAESVKGRFTISRDDSKRRVYLQMYTLRDQDTATYYCTSHEDFYYYSSYYFDYWGQGVMVTVSS VL: DIVLTQSPATLSVTPGESVSLSCRASQGISTSIHWYQQKSNESPRLLIKYASQSMSGIPSRFSGSGSGTDFTLRINRVESEDFSVYYCQQSYNLPLTFGSGTKLEIKR",1.83,8.47 pEC50 (M),1.61,8.32 pEC50 (M),–,7.5 pIC50 (M),7.8 pIC50 (M),7.7 pIC50 (M),8 pIC50 (M)
"93-1310F (antibody, IgG2b, V domains shown) VH: EVQLVETGGGLVQPGSSLKLSCATSGFTFSDTWMSWVRQAPGKGLEWVALIKDKNSNYEANYAESVKGRFTISRDDSKRRVYLQMFTLRDQDTATYYCTSHEDFYYYSSYYFDYWGHGVMVTVSS VL: DIVLTQSPATLSVTPGESVSLSCRASQGISTSIHWYQQKSNGSPRLLIKYASQSISGIPSRFSGSGSGTDFTLRINRVESEDFSVYYCQQTYSLPLTFGSGTRLEIKR",1.64,8.56 pEC50 (M),1.61,8.29 pEC50 (M),–,7.6 pIC50 (M),7.9 pIC50 (M),7.6 pIC50 (M),8.2 pIC50 (M)
"96-1403F (antibody, IgG2b, V domains shown) VH: EVQLVETGGGLVRPGSSLKLSCATSGFTFSDTWMSWVRQAPGKGLEWVALIKDKNSNSEANYAESIKGRFTISRDDSKSRVYLQMNTLRDQDTATYYCTRHEDFYYYSGYYFDYWGQGVMVTVSS VL: DIVLTQSPPTLSVTPGESVSLSCRASQGISTSIHWYQQRSNESPRLLIKYASQSIAGIPSRFSGSGSGTDFILSINRVESEDFSVYYCQQTYSLPLTFGPGTKLEVKR",1.86,7.76 pEC50 (M),1.78,7.42 pEC50 (M),–,6.9 pIC50 (M),7.3 pIC50 (M),7 pIC50 (M),7.7 pIC50 (M)
"82-1109A (antibody, IgG2b, V domains shown) VH: QVQLQQSGVELAKPGSSVKISCKASGNTFTSNYITWIKQTPGQGLEYIGYINTGSGKTYYNEKFKGKATLTADKSSSTAFMQLSSLTPDDSAVYFCASLTGVDYFDDWGQGVMVTVSS VL: DDIVLTQSPALAPSLGQRATISCRASQSVRMSGYNLMHWYQQKPGQQPKLLIYDASKLASGIPARFSGSGSGTDFTLTIDPVQSDDIATYYCQQSKDDPYTFGAGTKLELRR",–,7.83 pEC50 (M),–,7.83 pEC50 (M),–,–,–,–,–
